Target: T1, N-terminus of Glis3 (aa 1-653) fused to the Gal4 DBD (mouse, UniProt F6SGN4 1-653)
T1 sequence (looked up): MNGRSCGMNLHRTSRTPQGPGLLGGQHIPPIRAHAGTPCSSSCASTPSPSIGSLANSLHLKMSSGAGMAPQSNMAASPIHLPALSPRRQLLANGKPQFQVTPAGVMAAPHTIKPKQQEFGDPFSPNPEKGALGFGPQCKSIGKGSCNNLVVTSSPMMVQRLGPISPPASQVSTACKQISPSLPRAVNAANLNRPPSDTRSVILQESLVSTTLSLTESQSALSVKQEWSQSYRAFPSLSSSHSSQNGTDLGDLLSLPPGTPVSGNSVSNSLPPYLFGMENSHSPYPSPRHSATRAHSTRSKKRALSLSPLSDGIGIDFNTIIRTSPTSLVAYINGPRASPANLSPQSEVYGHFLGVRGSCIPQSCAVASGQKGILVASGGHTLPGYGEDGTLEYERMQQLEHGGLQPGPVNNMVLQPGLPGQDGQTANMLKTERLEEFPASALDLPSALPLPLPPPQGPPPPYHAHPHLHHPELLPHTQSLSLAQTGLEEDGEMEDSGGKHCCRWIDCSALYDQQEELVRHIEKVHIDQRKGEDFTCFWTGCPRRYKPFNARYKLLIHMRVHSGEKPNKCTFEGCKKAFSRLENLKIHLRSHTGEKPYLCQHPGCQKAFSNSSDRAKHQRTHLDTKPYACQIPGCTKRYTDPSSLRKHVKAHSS
Assay: two-hybrid

B1: full length PIASy fused to the Gal4 AD (VP16-PIASy) (natural protein, UniProt Q9JM05 1-507, looked up)
chain: MAAELVEAKNMVMSFRVSDLQMLLGFVGRSKSGLKHELVTRALQLVQFDCSPELFKKIKELYETRYAKKSAEPGPQAPRPLDPLALHSMPRTPLSGPTVDYPVLYGKYLNGLGRLPTKTLKPEVRLVKLPFFNMLDELLKPTELVPQSAEKLQESPCIFALTPRQVEMIRNSRELQPGVKAVQVVLRICYSDTSCPQEDQYPPNIAVKVNHSYCSVPGYYPSNKPGVEPKRPCRPINLTHLMYLSSATNRITVTWGNYGKSYSVALYLVRQLTSSDLLQRLKTIGVKHPELCKALVKEKLRLDPDSEIATTGVRVSLICPLVKMRLSVPCRAETCAHLQCFDAVFYLQMNEKKPTWMCPVCDKPAAYDQLIIDGLLSKILSECEGADEIEFLAEGSWRPIRAEKEPSCSPQGPILVLGTSDANGLAPASSTPGIGSGLSGPGSAGSGAGAAGSLENGKTGADVVDLTLDSSSSSEDEDEDEDDDEDEDEGPRPKRRCPFQKGLVPAC
- fold increase in luciferase expression (two-hybrid, chimeras co-expressed): 1.5 fold
